Measurements published in the supplement of paper PMC6757056.
± gives the standard deviation of the averaged measurements.

B1: library; a variant is named by its letters at N, in order (parent)
chain: GCUGUCACCGGUGUAUUACCCUAGUGGUCGACCGGUCUGAUGAGUCUNNNNNNAGACGAAACAGC

What was measured:
[1] = variants of: B1; assay: FACS-Seq fitted mean relative fluorescence mCherry/BFP without ligand (log10 relative fluorescence); ligand: hypoxanthine (xanthine aptamer); higher = higher reporter protein expression; conditions: HEK293T, ligand present: no
Experimental: (§1)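 Hammerhead (sTRSV) ribozyme switch libraries with a ligand aptamer grafted on stem I and a randomized N4-6 loop II, cloned into the 3' UTR of mCherry and transiently transfected into HEK293T cells; RNA-Seq 72 h post transfection with ligand added 1 h before transfection; RNA read count / plasmid DNA read count normalized to the non-cleaving sTRSVctl (x100), log10; sequences with >100 DNA reads. FACS-Seq: lentiviral library sorted into 6 bins after 48 h ligand, log-normal fit mean of mCherry/BFP scaled to controls. Printed sequences are partial switch sequences.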

[2] = variants of: B1; assay: normalized RNA/DNA level with ligand (relative to sTRSVctl = 100) (log10 (% of sTRSVctl)); ligand: hypoxanthine (xanthine aptamer); higher = less ribozyme self-cleavage, higher mRNA level; conditions: ligand concentration (+) RNA-Seq: 5 mM, HEK293T, reporter: mCherry (pCS4076), ligand present: yes
Experimental: as §1

[3] = variants of: B1; assay: normalized RNA/DNA level without ligand (relative to sTRSVctl = 100) (log10 (% of sTRSVctl)); ligand: hypoxanthine (xanthine aptamer); higher = less ribozyme self-cleavage, higher mRNA level; conditions: HEK293T, reporter: mCherry (pCS4076), ligand present: no
Experimental: as §1

[4] = variants of: B1; assay: FACS-Seq fitted mean relative fluorescence mCherry/BFP with ligand (log10 relative fluorescence); ligand: hypoxanthine (xanthine aptamer); ligand concentration (+) FACS-Seq: 5 mM; higher = higher reporter protein expression; conditions: HEK293T, ligand present: yes
Experimental: as §1

| Variant | FACS-Seq fitted mean (log10) [1] | normalized RNA/DNA level with ligand (log10) [2] | normalized RNA/DNA level without ligand (log10) [3] | FACS-Seq fitted mean (log10) [4] |
| --- | --- | --- | --- | --- |
| GACGAA | 0.408 ± 0.047 | 1.9 ± 0.056 | 1.7 ± 0.0095 | 0.566 ± 0.012 |
| GACGAC | -0.384 ± 0.063 | 1.9292 ± 0.0013 | 1.67 ± 0.017 | -0.465 ± 0.092 |
| CACAUA | 0.738 ± 0.084 | 1.91 ± 0.07 | 1.73 ± 0.047 | 0.656 ± 0.076 |
| UACAGG | 0.231 ± 0.044 | 1.838 ± 0.014 | 1.41 ± 0.035 | 0.661 ± 0.032 |
| UACAGC | 0.821 ± 0.21 | 1.96 ± 0.019 | 1.898 ± 0.013 | 0.655 ± 0.12 |
| UACAGA | 0.0904 ± 0.019 | 1.908 ± 0.018 | 1.54 ± 0.02 | 0.383 ± 0.04 |
| UAAGCG | -0.442 ± 0.031 | 1.909 ± 0.0091 | 1.6 ± 0.024 | 0.233 ± 0.018 |
| UACGGA | 0.543 ± 0.045 | 1.927 ± 0.0098 | 1.59 ± 0.03 | 0.703 ± 0.039 |
| GACACG | 0.359 ± 0.011 | 1.9 ± 0.045 | 1.51 ± 0.018 | 0.695 ± 0.12 |
| GACACC | 0.458 ± 0.072 | 1.92 ± 0.022 | 1.8641 ± 0.00014 | 0.365 ± 0.049 |
| AACGAG | 0.131 ± 0.0019 | 1.75 ± 0.031 | 1.22 ± 0.062 | 0.553 ± 0.084 |
| AACGAC | 0.305 ± 0.007 | 1.94 ± 0.02 | 1.79 ± 0.028 | 0.279 ± 0.064 |
| AACGAA | -0.1232 ± 0.00029 | 1.88 ± 0.068 | 1.67 ± 0.042 | -0.425 ± 0.21 |
| UACAAU | 0.702 ± 0.073 | 1.9 ± 0.039 | 1.819 ± 0.0071 | 0.7079 ± 0.0057 |
| UACAAG | 0.335 ± 0.0078 | 1.928 ± 0.011 | 1.58 ± 0.018 | 0.444 ± 0.047 |
| AAAGUU | 0.306 ± 0.0051 | 1.91 ± 0.026 | 1.823 ± 0.0039 | 0.548 ± 0.017 |
| AAAGUG | 0.148 ± 0.035 | 1.81 ± 0.034 | 1.31 ± 0.043 | 0.47 ± 0.012 |
| AAAGUA | 0.554 ± 0.029 | 1.9 ± 0.023 | 1.73 ± 0.053 | 0.61 ± 0.032 |
| UAAUAU | 0.353 ± 0.012 | 1.91 ± 0.061 | 1.796 ± 0.005 | 0.558 ± 0.096 |
| UAAUAG | 0.548 ± 0.036 | 1.874 ± 0.0076 | 1.631 ± 0.014 | 0.666 ± 0.019 |
| UAAUAA | 0.267 ± 0.015 | 1.902 ± 0.012 | 1.78 ± 0.023 | 0.321 ± 0.019 |
| UAAUUC | 0.569 ± 0.0061 | 1.96 ± 0.029 | 1.91 ± 0.0049 | 0.671 ± 0.032 |
| UAAUUA | 0.737 ± 0.055 | 1.92 ± 0.081 | 1.87 ± 0.032 | 0.65 ± 0.063 |
| UAAUUU | -0.253 ± 0.046 | 1.98 ± 0.034 | 1.892 ± 0.01 | -0.129 ± 0.063 |

| Variant | FACS-Seq fitted mean (log10) [1] | normalized RNA/DNA level with ligand (log10) [2] | normalized RNA/DNA level without ligand (log10) [3] | FACS-Seq fitted mean (log10) [4] |
| --- | --- | --- | --- | --- |
| GACAUG | 0.405 ± 0.11 | 1.81 ± 0.032 | 1.4 ± 0.0058 | 0.472 ± 0.081 |
| GACAUA | 0.382 ± 0.011 | 1.91 ± 0.027 | 1.79 ± 0.027 | 0.373 ± 0.037 |
| AACAAG | 0.124 ± 0.013 | 1.85 ± 0.051 | 1.41 ± 0.098 | 0.462 ± 0.033 |
| AACAAU | 0.434 ± 0.044 | 1.89 ± 0.023 | 1.74 ± 0.042 | 0.249 ± 0.16 |
| UAAGUG | -0.334 ± 0.04 | 1.891 ± 0.0081 | 1.653 ± 0.015 | 0.146 ± 0.027 |
| AACGGC | 0.644 ± 0.088 | 1.95 ± 0.02 | 1.816 ± 0.012 | 0.696 ± 0.074 |
| AACGGA | 0.375 ± 0.033 | 1.917 ± 0.01 | 1.62 ± 0.035 | 0.525 ± 0.041 |
| CACGCU | 0.785 ± 0.049 | 1.93 ± 0.034 | 1.87 ± 0.021 | 0.774 ± 0.079 |
| CAAUCC | 0.406 ± 0.038 | 1.97 ± 0.086 | 1.82 ± 0.026 | 0.468 ± 0.05 |
| GACCUG | 0.408 ± 0.074 | 1.887 ± 0.0022 | 1.52 ± 0.018 | 0.608 ± 0.095 |
| AACCAC | 0.0153 ± 0.085 | 1.91 ± 0.036 | 1.78 ± 0.037 | 0.246 ± 0.02 |
| AACCAG | 0.356 ± 0.091 | 1.82 ± 0.027 | 1.41 ± 0.049 | 0.678 ± 0.017 |
| GACAAA | 0.0314 ± 0.035 | 1.91 ± 0.058 | 1.774 ± 0.011 | 0.0426 ± 0.012 |
| UACAUG | -0.317 ± 0.071 | 1.93 ± 0.029 | 1.69 ± 0.018 | 0.0659 ± 0.069 |
| CAAGUC | 0.736 ± 0.067 | 1.95 ± 0.069 | 1.921 ± 0.018 | 0.635 ± 0.04 |
| AACAUG | 0.137 ± 0.021 | 1.861 ± 0.0051 | 1.44 ± 0.042 | 0.447 ± 0.013 |
| AACAUA | 0.665 ± 0.084 | 1.89 ± 0.021 | 1.801 ± 0.018 | 0.63 ± 0.035 |
| CAAUAC | 0.32 ± 0.022 | 1.93 ± 0.069 | 1.767 ± 0.01 | 0.507 ± 0.0056 |
| CAAUAA | 0.566 ± 0.035 | 1.89 ± 0.04 | 1.654 ± 0.0078 | 0.578 ± 0.07 |
| AACAGA | 0.273 ± 0.058 | 1.907 ± 0.0091 | 1.642 ± 0.0026 | 0.322 ± 0.091 |
| AACAGU | -0.0447 ± 0.045 | 1.87 ± 0.047 | 1.54 ± 0.018 | 0.4214 ± 0.0042 |
| AACAGG | 0.1 ± 0.034 | 1.76 ± 0.042 | 1.291 ± 0.0056 | 0.57 ± 0.031 |
| CAAGGU | 0.232 ± 0.021 | 1.883 ± 0.015 | 1.78 ± 0.029 | 0.388 ± 0.027 |
| CAAGGC | -0.0753 ± 0.017 | 1.936 ± 0.017 | 1.84 ± 0.024 | -0.0781 ± 0.056 |

| Variant | FACS-Seq fitted mean (log10) [1] | normalized RNA/DNA level with ligand (log10) [2] | normalized RNA/DNA level without ligand (log10) [3] | FACS-Seq fitted mean (log10) [4] |
| --- | --- | --- | --- | --- |
| AACCCG | 0.577 ± 0.077 | 1.84 ± 0.088 | 1.378 ± 0.013 | 0.751 ± 0.043 |
| AACCCA | 0.217 ± 0.063 | 1.92 ± 0.022 | 1.85 ± 0.042 | 0.245 ± 0.0026 |
| AAAGAU | 0.523 ± 0.055 | 1.895 ± 0.016 | 1.68 ± 0.017 | 0.708 ± 0.025 |
| GAAUCA | 0.438 ± 0.055 | 1.94 ± 0.065 | 1.809 ± 0.013 | 0.46 ± 0.066 |
| GAAUCG | 0.14 ± 0.0063 | 1.84 ± 0.02 | 1.4 ± 0.053 | 0.439 ± 0.05 |
| GAAUAG | 0.0583 ± 0.0095 | 1.786 ± 0.011 | 1.35 ± 0.026 | 0.459 ± 0.05 |
| GAAUAA | 0.317 ± 0.056 | 1.91 ± 0.04 | 1.78 ± 0.0034 | 0.497 ± 0.03 |
| GAAUAC | 0.23 ± 0.012 | 1.89 ± 0.044 | 1.713 ± 0.0067 | 0.499 ± 0.062 |
| GACCAG | 0.136 ± 0.033 | 1.865 ± 0.0019 | 1.55 ± 0.073 | 0.531 ± 0.013 |
| GACCAA | 0.126 ± 0.012 | 1.9242 ± 0.00022 | 1.81 ± 0.019 | 0.21 ± 0.049 |
| GAAUUA | 0.374 ± 0.05 | 1.91 ± 0.043 | 1.804 ± 0.012 | 0.557 ± 0.089 |
| GAAUUG | 0.0724 ± 0.04 | 1.81 ± 0.032 | 1.4 ± 0.076 | 0.434 ± 0.011 |
| GAAUUC | 0.407 ± 0.28 | 1.929 ± 0.0056 | 1.9 ± 0.039 | 0.388 ± 0.089 |
| CACCUU | -0.395 ± 0.03 | 1.97 ± 0.03 | 1.87 ± 0.044 | -0.0406 ± 0.045 |
| CACGAA | 0.226 ± 0.02 | 1.87 ± 0.02 | 1.72 ± 0.037 | 0.363 ± 0.022 |
| GAAUGG | -0.206 ± 0.053 | 1.76 ± 0.037 | 1.216 ± 0.012 | 0.417 ± 0.012 |
| GAAUGA | 0.481 ± 0.081 | 1.922 ± 0.0024 | 1.66 ± 0.057 | 0.688 ± 0.028 |
| GAAUGC | 0.275 ± 0.016 | 1.863 ± 0.014 | 1.53 ± 0.03 | 0.577 ± 0.011 |
| GAAUGU | 0.27 ± 0.024 | 1.91 ± 0.022 | 1.718 ± 0.0052 | 0.381 ± 0.07 |
| GACAGG | -0.206 ± 0.16 | 1.765 ± 0.012 | 1.27 ± 0.033 | -0.557 ± 0.034 |
| GACAGC | 0.379 ± 0.028 | 1.965 ± 0.007 | 1.74 ± 0.084 | 0.554 ± 0.047 |
| GACAGU | -0.268 ± 0.11 | 1.926 ± 0.0025 | 1.8 ± 0.045 | 0.146 ± 0.025 |
| GACAGA | 0.4408 ± 0.00062 | 1.91 ± 0.038 | 1.65 ± 0.035 | 0.594 ± 0.088 |
| GACCGU | 0.658 ± 0.04 | 1.933 ± 0.0015 | 1.91 ± 0.0056 | 0.698 ± 0.013 |
